We go through nine substances from patent US6057104.

The target in test [1] is MmRad51, full length, fused to the GAL4 DNA-binding domain (the "bait") (mouse). As to the kind of experiment: yeast two-hybrid in HF7c cells, full length MmRad51 bait, X-gal staining.
Test [2] has the same target. Put plainly: yeast two-hybrid in HF7c cells, full length MmRad51 bait; relative to full length MmRad51 prey as 100%.
Test [3] has the same target. As to the kind of experiment: yeast two-hybrid in HF7c cells, full length MmRad51 bait; relative to the positive control.
Test [4] shares this target. As to the kind of experiment: yeast two-hybrid in HF7c cells, full length MmRad51 bait; the reference of the scale.
The target in test [5] is mammalian Rad51 (MmRad51), wild-type protein of the cells (mouse).
Test [6] concerns the target MmRad51, full length, fused to the GAL4 DNA-binding domain (the "bait") (mouse). Put plainly: yeast two-hybrid against full length MmRad51.

Where only a bound is given, the exact number is not on record here.

With “MmRad51 deletion TR1-43, as two-hybrid prey”, in test [1], the time until yeast cells stained blue is less than 5 min. The same substance gave a relative β-galactosidase activity in test [2] of 43%.
Turning to “MmRad51 deletion TR1-93, as two-hybrid prey”, the time until yeast cells stained blue in test [1] stood at 30 min. In test [2], this substance showed a relative β-galactosidase activity of 4%.
In test [3], “MmRad51 deletion TR1-131, as two-hybrid prey” had a relative β-galactosidase activity of 11%.
Substance “MmRad51 deletion TR1-175, as two-hybrid prey” displayed a relative β-galactosidase activity in test [3] of 9%.
On to “MmRad51 deletion TR43-339, as two-hybrid prey”, for which the relative β-galactosidase activity in test [2] was 1.
In test [2], “MmRad51 deletion TR131-339, as two-hybrid prey” yielded a relative β-galactosidase activity of 1.
In test [4], “MmRad51, full length, as two-hybrid prey” returned a relative β-galactosidase activity of 100%.
Substance “altered Rad51 product encoded by rad51K-A134, expressed in ES cells” registered a relative targeting frequency (TG^r +G418^r /G418^r colonies) at HPRT in ES cells, IVH-tk as 100% in test [5] of 54%.
On to “rad51K-A134 product, as tested in the yeast two-hybrid system”, for which the relative β-galactosidase activity in test [6] was 90%.
